The results in this text go back to article PMC5605572, “Phosphorylation of Suppressor of Hairless impedes its DNA-binding activity”.

What all share (conditions): protein: ivt; label: radiolabelled (EMSA); 5' overhang 4 nt on each strand
For orientation: In EMSA bound probe runs differently from free probe, usually more slowly.

One data set has as its target Su(H) R266H (Drosophila melanogaster, UniProt P28159 1-594, R266H). Nature of the data set: EMSA; EMSA: 10 mM Tris-HCl pH 7.5, 50 mM NaCl, 1 mM EDTA, 0.0275 ug/ul salmon sperm DNA; ITC: 50 mM sodium phosphate pH 6.5, 150 mM NaCl, 10 C, 10 uM Su(H) in cell, 100 uM DNA in syringe.
In a further data set the target is Su(H) wt (Drosophila melanogaster, UniProt P28159 1-594). Nature of the data set: EMSA; self-competition with unlabelled oligo; EMSA: 10 mM Tris-HCl pH 7.5, 50 mM NaCl, 1 mM EDTA, 0.0275 ug/ul salmon sperm DNA; ITC: 50 mM sodium phosphate pH 6.5, 150 mM NaCl, 10 C, 10 uM Su(H) in cell, 100 uM DNA in syringe.
In a further data set the target is Su(H) S269A (Drosophila melanogaster, UniProt P28159 1-594, S269A). Description: EMSA; no obvious difference from wt; self-competition with unlabelled oligo; EMSA: 10 mM Tris-HCl pH 7.5, 50 mM NaCl, 1 mM EDTA, 0.0275 ug/ul salmon sperm DNA; ITC: 50 mM sodium phosphate pH 6.5, 150 mM NaCl, 10 C, 10 uM Su(H) in cell, 100 uM DNA in syringe.
Chain of Su(H) S269A (P28159 whole entry S269A): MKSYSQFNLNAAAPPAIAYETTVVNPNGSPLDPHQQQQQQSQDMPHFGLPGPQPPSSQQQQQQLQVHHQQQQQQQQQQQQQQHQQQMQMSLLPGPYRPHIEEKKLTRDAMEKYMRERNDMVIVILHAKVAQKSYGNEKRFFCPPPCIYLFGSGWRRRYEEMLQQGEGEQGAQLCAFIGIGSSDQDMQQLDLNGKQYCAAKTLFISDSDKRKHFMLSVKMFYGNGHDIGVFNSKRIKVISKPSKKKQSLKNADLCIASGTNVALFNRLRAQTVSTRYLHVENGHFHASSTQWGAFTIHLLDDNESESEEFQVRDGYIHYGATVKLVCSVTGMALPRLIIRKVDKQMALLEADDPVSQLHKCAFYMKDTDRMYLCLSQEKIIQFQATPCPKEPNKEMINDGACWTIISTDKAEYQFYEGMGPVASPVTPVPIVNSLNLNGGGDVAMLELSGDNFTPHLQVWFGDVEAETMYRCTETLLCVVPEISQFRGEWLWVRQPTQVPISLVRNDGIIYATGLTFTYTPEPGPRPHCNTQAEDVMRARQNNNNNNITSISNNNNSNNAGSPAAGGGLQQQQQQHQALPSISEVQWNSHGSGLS

Chain of Su(H) wt (P28159 whole entry): as the sequence (P28159 whole entry S269A) above, with A269S counted along it
Chain of Su(H) R266H (P28159 whole entry R266H): as the sequence (P28159 whole entry S269A) above, with R266H, A269S counted along it

B1: E(spl)m8-S1 (dsDNA)
DNA 1: TTGGGTGGCTCGTGGCGTGGGAACCGAGCTGAAAG
DNA 2: GGTTCTTTCAGCTCGGTTCCCACGCCACGAGCCAC
Take B1: the binding result is “no binding” with Su(H) R266H, “binds” in the data set with Su(H) wt and “binds” in the data set with Su(H) S269A.
